Source: patent publication US9127260B2

Key:
[1] = molecular target: Natuphos (Natuphos 10000L, BASF), commercial phytase
[2] = molecular target: T1, synthetic phytase Fus5#2 (mature) (synthetic fusion of Hafnia sp. LU11047 phytase and Yersinia mollaretii ATCC 43969 phytase fragments)
T1 sequence: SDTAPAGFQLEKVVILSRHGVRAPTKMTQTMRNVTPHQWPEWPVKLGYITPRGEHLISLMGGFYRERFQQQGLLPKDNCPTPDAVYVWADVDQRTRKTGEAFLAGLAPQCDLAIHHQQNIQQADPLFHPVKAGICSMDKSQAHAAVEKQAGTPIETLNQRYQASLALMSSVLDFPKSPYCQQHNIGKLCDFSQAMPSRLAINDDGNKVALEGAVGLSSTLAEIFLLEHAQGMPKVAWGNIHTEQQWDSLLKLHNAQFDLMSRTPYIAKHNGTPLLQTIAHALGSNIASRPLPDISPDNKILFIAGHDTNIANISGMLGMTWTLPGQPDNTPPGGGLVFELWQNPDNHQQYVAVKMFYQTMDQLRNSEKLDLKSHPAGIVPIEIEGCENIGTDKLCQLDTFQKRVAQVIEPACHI

pepsin (Sigma P-7000, 445 U/mg) (from UniProt P00791) (enzyme)
Stability to pepsin (residual phytase activity after 30 min at 37 C with 10 mg/ml pepsin, pH 2, relative to a pH 5.5 reference) [1]: 20%
Stability to pepsin (residual phytase activity after 30 min at 37 C with 10 mg/ml pepsin, pH 2, relative to a pH 5.5 reference) [2]: 1%
